Laboratory results taken from paper PMC10095184.

Assays:
[1] = test system: NS5-6xHis BTV-1 (Bluetongue virus 1); assay: pull-down RT-qPCR
[2] = test system: NS5-6xHis AHSV-4 (African horse sickness virus 4); assay: pull-down RT-qPCR

BTV-1 Seg-1 mRNA
binding signal (Ct (ctrl 14.81)) [1]: 10.8
binding signal (Ct (ctrl 18.09)) [1]: 10.9
binding signal (Ct (ctrl 14.81)) [2]: 11.3
binding signal (Ct (ctrl 18.09)) [2]: 11.6

BTV-1 Seg-3 mRNA
binding signal (Ct (ctrl 19.32)) [1]: 11.2
binding signal (Ct (ctrl 19.87)) [1]: 11.5
binding signal (Ct (ctrl 19.32)) [2]: 11.9
binding signal (Ct (ctrl 19.87)) [2]: 11.8

BTV-1 Seg-7 mRNA
binding signal (Ct (ctrl 16.17)) [1]: 11.1
binding signal (Ct (ctrl 16.39)) [1]: 10.2
binding signal (Ct (ctrl 16.17)) [2]: 11.8
binding signal (Ct (ctrl 16.39)) [2]: 10.9
